Measured values as given in paper PMC5561129.

Molecular target: full-length 3xflag-LRRK1 (leucine-rich repeat kinase 1) (human) (UniProt Q38SD2)
Assay: cryo-EM structure; single particle cryo-EM of purified 3xflag-LRRK1 eluted in Tris buffer at pH 7.4 with 0.02% Triton X-100; thin carbon film on Quantifoil grids; EMAN2 2D classes and 3D reconstruction

full-length 3xflag-LRRK1 (leucine-rich repeat kinase 1), Q38SD2 1-2015
stoichiometry N: 2
